Source: publication PMC10454365

Molecular target: Recombinant human LY6K protein (LY6K-Wt) (human) (UniProt Q17RY6)
Assay: SPR; LY6K immobilised on a CM5 chip by amine coupling (~6200–7000 RU); TbR1 injected at various concentrations, 50 μL/min; Biacore T200, 25 °C; running buffer PBS-P + 5% DMSO; 1:1 kinetics binding model

Kd: 9.2 nM | koff: 0.000468 s⁻¹ | kon: 51000 M⁻¹ s⁻¹
B1: Recombinant human TbR1 protein (receptor)
chain: LQCFCHLCTKDNFTCVTDGLCFVSVTETTDKVIHNSMCIAEIDLIPRDRPFVCAPSSKTGSVTTTYCCNQDHCNKIELPTTVKSSPGLGPVEL
